{"source": "IntAct's records for PubMed 21145460", "parents": {"B1": {"name": "Regulator of nonsense transcripts 1 (Homo sapiens), Q92900-2 (parent)", "chain": "MSVEAYGPSSQTLTFLDTEEAELLGADTQGSEFEFTDFTLPSQTQTPPGGPGGPGGGGAGGPGGAGAGAAAGQLDAQVGPEGILQNGAVDDSVAKTSQLLAELNFEEDEEDTYYTKDLPIHACSYCGIHDPACVVYCNTSKKWFCNGRGNTSGSHIVNHLVRAKCKEVTLHKDGPLGETVLECYNCGCRNVFLLGFIPAKADSVVVLLCRQPCASQSSLKDINWDSSQWQPLIQDRCFLSWLVKIPSEQEQLRARQITAQQINKLEELWKENPSATLEDLEKPGVDEEPQHVLLRYEDAYQYQNIFGPLVKLEADYDKKLKESQTQDNITVRWDLGLNKKRIAYFTLPKTDSDMRLMQGDEICLRYKGDLAPLWKGIGHVIKVPDNYGDEIAIELRSSVGAPVEVTHNFQVDFVWKSTSFDRMQSALKTFAVDETSVSGYIYHKLLGHEVEDVIIKCQLPKRFTAQGLPDLNHSQVYAVKTVLQRPLSLIQGPPGTGKTVTSATIVYHLARQGNGPVLVCAPSNIAVDQLTEKIHQTGLKVVRLCAKSREAIDSPVSFLALHNQIRNMDSMPELQKLQQLKDETGELSSADEKRYRALKRTAERELLMNADVICCTCVGAGDPRLAKMQFRSILIDESTQATEPECMVPVVLGAKQLILVGDHCQLGPVVMCKKAAKAGLSQSLFERLVVLGIRPIRLQVQYRMHPALSAFPSNIFYEGSLQNGVTAADRVKKGFDFQWPQPDKPMFFYVTQGQEEIASSGTSYLNRTEAANVEKITTKLLKAGAKPDQIGIITPYEGQRSYLVQYMQFSGSLHTKLYQEVEIASVDAFQGREKDFIILSCVRANEHQGIGFLNDPRRLNVALTRARYGVIIVGNPKALSKQPLWNHLLNYYKEQKVLVEGPLNNLRESLMQFSKPRKLVNTINPGARFMTTAMYDAREAIIPGSVYDRSSQGRPSSMYFQTHDQIGMISAGPSHVAAMNIPIPFNLVMPPMPPPGYFGQANGPAAGRGTPKGKTGRGGRQKNRFGLPGPSQTNLPNSQASQDVASQPFSQGALTQGYISMSQPSQMSQPGLSQPELSQDSYLGDEFKSQIDVALSQDSTYQGERAYQHGGVTGLSQY", "partner": "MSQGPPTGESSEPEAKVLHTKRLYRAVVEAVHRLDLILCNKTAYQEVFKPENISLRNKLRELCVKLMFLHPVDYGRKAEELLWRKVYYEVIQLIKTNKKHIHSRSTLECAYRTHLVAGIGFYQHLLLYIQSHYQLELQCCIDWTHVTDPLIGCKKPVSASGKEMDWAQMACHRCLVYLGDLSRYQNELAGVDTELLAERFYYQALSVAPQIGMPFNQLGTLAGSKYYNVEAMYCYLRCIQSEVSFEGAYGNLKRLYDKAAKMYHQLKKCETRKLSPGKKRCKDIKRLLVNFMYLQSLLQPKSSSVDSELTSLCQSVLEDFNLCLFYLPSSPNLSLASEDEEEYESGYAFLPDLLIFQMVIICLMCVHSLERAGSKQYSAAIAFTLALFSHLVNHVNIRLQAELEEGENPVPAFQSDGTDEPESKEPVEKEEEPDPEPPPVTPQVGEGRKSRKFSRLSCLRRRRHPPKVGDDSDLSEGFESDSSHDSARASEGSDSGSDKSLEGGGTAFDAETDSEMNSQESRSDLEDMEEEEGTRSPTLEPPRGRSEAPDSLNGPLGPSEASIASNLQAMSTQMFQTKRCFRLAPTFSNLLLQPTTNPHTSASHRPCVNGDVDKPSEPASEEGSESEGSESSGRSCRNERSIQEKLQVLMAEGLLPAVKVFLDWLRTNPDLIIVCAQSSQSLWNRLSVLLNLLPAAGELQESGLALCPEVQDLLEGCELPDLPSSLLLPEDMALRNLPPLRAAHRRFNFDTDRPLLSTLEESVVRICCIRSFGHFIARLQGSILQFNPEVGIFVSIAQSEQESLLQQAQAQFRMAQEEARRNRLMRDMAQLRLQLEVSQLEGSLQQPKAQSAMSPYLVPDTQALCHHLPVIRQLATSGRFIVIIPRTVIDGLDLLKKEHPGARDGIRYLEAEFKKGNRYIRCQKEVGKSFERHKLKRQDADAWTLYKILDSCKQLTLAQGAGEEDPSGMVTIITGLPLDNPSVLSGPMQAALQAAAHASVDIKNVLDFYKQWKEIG"}, "B2": {"name": "Regulator of nonsense transcripts 1 (Homo sapiens), Q92900-2 (parent)", "chain": "B1 chain"}}}
{"variants_of": "B1", "settings": "with smg5_human SMG5, Q9UPR3"}
{"variant": "K498A", "effect of a mutation on the interaction": "increasing interaction"}
{"variant": "D636A;E637A", "effect of a mutation on the interaction": "increasing interaction"}
{"variants_of": "B2", "settings": "with est1a_human SMG6, Q86US8"}
{"variant": "K498A", "effect of a mutation on the interaction": "increasing interaction"}
{"variant": "D636A;E637A", "effect of a mutation on the interaction": "increasing interaction"}
